Source: article PMC3470408

System: CC(C)=CCOP(=O)(O)OP(=O)(O)O
Test: purified protein
Conditions: pH 7.0; 37.0 °C

Rv0562 (Mycobacterium tuberculosis H37Rv)
Km: 5 ± 2 µM
